Assay [1] addresses T1, human OX40 protein expressed on the surface of cells (human, UniProt P43489 29-277).
T1 sequence (looked up): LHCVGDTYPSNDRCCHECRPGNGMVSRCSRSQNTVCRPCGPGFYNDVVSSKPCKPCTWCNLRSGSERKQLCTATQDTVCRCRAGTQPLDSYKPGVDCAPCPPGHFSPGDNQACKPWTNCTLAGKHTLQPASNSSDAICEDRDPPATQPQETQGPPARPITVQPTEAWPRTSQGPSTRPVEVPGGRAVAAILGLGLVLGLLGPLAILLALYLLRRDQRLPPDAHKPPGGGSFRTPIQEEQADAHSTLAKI
As to the kind of experiment: cell-based or functional assay.

Assay [2] deals with T2, biotinylated OX40 recombinant protein (UniProt P43489 29-216, limits assumed, biotinylated (site not stated)).
T2 construct: also called Biotin-OX40
T2 sequence (looked up): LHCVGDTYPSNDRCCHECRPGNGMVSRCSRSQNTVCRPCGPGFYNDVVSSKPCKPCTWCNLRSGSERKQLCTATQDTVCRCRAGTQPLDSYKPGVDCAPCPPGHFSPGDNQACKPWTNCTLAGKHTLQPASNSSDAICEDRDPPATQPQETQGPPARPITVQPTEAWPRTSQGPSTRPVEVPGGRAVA
The assay is described as follows: ELISA: OX40L coated, biotinylated OX40 titrated (x axis is its concentration in nM), OD 450nm. (In an ELISA, binding on a coated surface is turned into a signal by an enzyme label.)

B1: anti-OX40 antibody HFB10-1E1hG1 (antibody, human IgG1, kappa, V domains shown)
VH: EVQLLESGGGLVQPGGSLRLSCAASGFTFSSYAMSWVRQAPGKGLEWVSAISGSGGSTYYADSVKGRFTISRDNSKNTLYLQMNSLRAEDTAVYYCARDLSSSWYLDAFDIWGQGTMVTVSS
VL: DIQMTQSPSSVSASVGDRVTITCRASQGISSWLAWYQQKPGKAPKLLIYAASSLQSGVPSRFSGSGSGTDFTLTISSLQPEDFATYYCQQANSFPLTFGGGTKLEIKR
As for B1, in assay [1], the “EC50 (MFI of GFP), NF-kb GFP Jurkat reporter cells, cross-linked with anti-human IgG” value was 2.9 nM; the “EC50 of IL-2 secretion, primary CD4+ T cells pre-activated with anti-CD3 and anti-CD28, cross-linked” value is 0.2 nM.

B2: OX40L (trimeric OX40L recombinant protein) (ligand, UniProt P23510 51-183, looked up)
chain: QVSHRYPRIQSIKVQFTEYKKEKGFILTSQKEDEIMKVQNNSVIINCDGFYLISLKGYFSQEVNISLHYQKDEEPLFQLKKVRSVNSLMVASLTYKDKVYLNVTTDNTSLDDFHVNGGELILIHQNPGEFCVL
notes: Bought recombinant protein; also called OX40 ligand
For orientation: EC50 (read off the curve) means the midpoint of the concentration-response curve. On to B2, for which the “EC50 (MFI of GFP), NF-kb GFP Jurkat reporter cells, without cross-linking” value in assay [1] came to 45 nM. Further, the concentration for a half-maximal effect (EC50 (read off the curve)) in assay [2] was about 0.5 nM.

(Values after US20230061604A1 (HIFIBIO HK, published 2023).)
